Results from the supplement of paper PMC7877785.
± gives the uncertainty stated by the source.

Experiment: self-splicing fitness, log relative to wild type (ln ratio); higher = more splicing; Tetrahymena group I intron in knt gene, E. coli kanamycin selection, DiMSum; sequences stand for … in CUCUCU…GGAGGGAAAAGUUAUCAGGCAUGCACCUGGUAGCUAGUCUUUAAACCAAUAGAUUGCAUCGGUUUAAAAGGCAAGACCGUCAAAUUGCGGGAAAGGGGUCAACAGCCGUUCAGUACCAAGUCUCAGGGGAAACUUUGAGAUGGCCUUGCAAAGGGUAUGGUAAUAAGCUGACGGACAUGGUCCUAACCACGCAGCCAAGUCCUAAGUCAACAGAUCUUCUGUUGAUAUGGAUGCAGUUCACAGACUAAAUGUCGGUCGGGGAAGAUGUAUUCUUCUCAUAAGAUAUAGUCGGACCUCUCCUUAAUGGGAGCUAGCGGAUGAAGUGAUGCAACACUGGAGCCGCUGGGAACUAAUUUGUAUGCGAAAGUAUAUUGAUUAGUUUUGGAGUACUCGUGGUCG
Method in brief: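 Library with all eight P1ex-region intron nucleotides randomised, intron inside the knt kanamycin-resistance gene on pET-22b(+), in E. coli BL21(DE3). Cells grew overnight at 37°C or 30°C on LB agar with or without 25 μg/mL kanamycin (plus 100 μg/mL carbenicillin, 50 μM IPTG, 0.2% rhamnose), in six replicate transformations. Pooled colonies were amplicon-sequenced on Illumina HiSeq 2500. DiMSum fitness is the error-weighted combination of wild-type-normalised replicate fold changes, kanamycin versus none.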

Sequence | self-splicing fitness (ln) (30 °C) | self-splicing fitness (ln) (37 °C)
UUGCAGCAAUAUUACGCAUU | -1.92 ± 0.19 | -1.42 ± 0.18
UUGCAGCAAUAUUACGCGAA | -0.925 ± 0.16 | -0.846 ± 0.14
UUGCAGCAAUAUUACGCGGU | -3.63 ± 0.35 | 
UUGCAGCAAUAUUACGCUAG | -2.94 ± 0.23 | -2.44 ± 0.24
UUGCAGCAAUAUUACGGAAU | -2.83 ± 0.3 | 
UUGCAGCAAUAUUACGGACU | -1.3 ± 0.18 | -1.7 ± 0.29
UUGCAGCAAUAUUACGGAGG | -2.94 ± 0.16 | -2.73 ± 0.24
UUGCAGCAAUAUUACGUACG | -0.368 ± 0.08 | 0.233 ± 0.1
UUGCAGCAAUAUUACGUCAC |  | -1.35 ± 0.29
UUGCAGCAAUAUUACGUCUG | -3.23 ± 0.16 | -2.32 ± 0.18
UUGCAGCAAUAUUACGUGAA | -1.12 ± 0.069 | -0.162 ± 0.086
UUGCAGCAAUAUUACGUGCA | -2.15 ± 0.13 | -1.27 ± 0.12
UUGCAGCAAUAUUACGUUCG | -1.16 ± 0.049 | -0.636 ± 0.071
UUGGAGCAAUAUUACGAAUG | -3.5 ± 0.2 | -2.31 ± 0.21
UUGGAGCAAUAUUACGAAUU | -1.68 ± 0.31 | -0.925 ± 0.41
UUGGAGCAAUAUUACGACAC |  | -2.36 ± 0.37
UUGGAGCAAUAUUACGACGA | -0.765 ± 0.14 | 0.309 ± 0.21
UUGGAGCAAUAUUACGACUG | -0.79 ± 0.46 | 0.294 ± 0.47
UUGGAGCAAUAUUACGAGGG | -2.34 ± 0.22 | -2.6 ± 0.49
UUGGAGCAAUAUUACGAUUC |  | -1.85 ± 0.32
UUGGAGCAAUAUUACGAUUG |  | -2.34 ± 0.41
UUGGAGCAAUAUUACGCACA | -0.871 ± 0.32 | 
UUGGAGCAAUAUUACGCCCU |  | -1.44 ± 0.46
UUGGAGCAAUAUUACGCCUG | -2.22 ± 0.2 | -1.2 ± 0.23
UUGGAGCAAUAUUACGCGAU | -2.54 ± 0.33 | -0.423 ± 0.35
UUGGAGCAAUAUUACGCUAG | -2.56 ± 0.23 | -1.64 ± 0.2
UUGGAGCAAUAUUACGGAGG | -2.92 ± 0.24 | -2.01 ± 0.36

Sequence | self-splicing fitness (ln) (30 °C) | self-splicing fitness (ln) (37 °C)
UUGGAGCAAUAUUACGGAUA | -2.85 ± 0.21 | -2.04 ± 0.23
UUGGAGCAAUAUUACGGUUA | -2.08 ± 0.45 | -1.49 ± 0.25
UUGGAGCAAUAUUACGGUUG | -3.97 ± 0.28 | -3.38 ± 0.31
UUGGAGCAAUAUUACGUCGG | -2.64 ± 0.26 | -0.784 ± 0.19
UUGGAGCAAUAUUACGUCUG | -2.66 ± 0.17 | -0.914 ± 0.22
UUGGAGCAAUAUUACGUGCU |  | -2.64 ± 0.34
UUGUAGCAAUAUUACGAACA | -0.432 ± 0.16 | -0.256 ± 0.15
UUGUAGCAAUAUUACGAGUA | -2.13 ± 0.31 | -1.22 ± 0.29
UUGUAGCAAUAUUACGAUAG | -1.52 ± 0.2 | -1.16 ± 0.17
UUGUAGCAAUAUUACGCAAC | -2.57 ± 0.41 | 
UUGUAGCAAUAUUACGCAAU | -2.98 ± 0.34 | 
UUGUAGCAAUAUUACGCAUA | -1.81 ± 0.16 | -1.31 ± 0.15
UUGUAGCAAUAUUACGCGAA | -1.02 ± 0.21 | -1.73 ± 0.28
UUGUAGCAAUAUUACGCGAG | -1.17 ± 0.11 | -0.735 ± 0.099
UUGUAGCAAUAUUACGCGUU | -2.56 ± 0.23 | -1.64 ± 0.33
UUGUAGCAAUAUUACGCUGA | -1.09 ± 0.18 | -1.05 ± 0.2
UUGUAGCAAUAUUACGGACG | -1.33 ± 0.19 | -0.721 ± 0.19
UUGUAGCAAUAUUACGGAGG | -3.76 ± 0.42 | -1.87 ± 0.35
UUGUAGCAAUAUUACGGGCA | -1.8 ± 0.21 | -0.65 ± 0.2
UUGUAGCAAUAUUACGUACG | -1.24 ± 0.12 | -0.138 ± 0.16
UUGUAGCAAUAUUACGUAUA | -2.1 ± 0.17 | -0.709 ± 0.15
UUGUAGCAAUAUUACGUGAG | -0.904 ± 0.076 | -0.739 ± 0.11
UUGUAGCAAUAUUACGUGGU | -3.35 ± 0.3 | -3.67 ± 0.42
UUGUAGCAAUAUUACGUUAC |  | -1.65 ± 0.43
UUUAAGCAAUAUUACGAACC |  | 0.0298 ± 0.37
UUUAAGCAAUAUUACGAGGU | -3.65 ± 0.22 | -2.04 ± 0.15
